Like-named read-outs stand apart in the source and are kept apart here.
Legend:
[1] = Accelerated shaking test, physical stability of mCE-PEG insulin conjugates (fibril formation/precipitation); type: physicochemical; details: 87 μM, 37° C., shaker 100 strokes/min, n=14 vials
Protocol: The long term physical stability of PEG-insulin derivatives was examined by their tendency to form fibrils in the accelerated shaking test at a concentration of 87 μM. Aggregation was evaluated in 5 ml borosilicate glass vials (1.2 ml filling volume) at 37° C., in a shaker at 100 strokes/min. Individual vials (n=14) were withdrawn at determined times, and the remaining soluble fraction of particular PEG-insulin derivatives was determined after filtration (PVDF membrane, 0.22 μm) using UV spectroscopy and/or HPLC. In parallel, vials were checked visually on a daily basis for the presence of turbidity and/or a precipitate, which was an independent indication that physical aggregation had occurred.

male Sprague-Dawley rats = assay: Biological activity of mCE-PEG insulin conjugates, blood glucose depression in rat after i.v. injection; type: in vivo; details: from blood glucose AUC vs unmodified human insulin, fresh solution in PBS 20 μg/ml
Protocol: The biological activity of mCE-PEG-substituted insulin conjugates was tested in a rat model (male Sprague-Dawley rats, 250±50 g) by measuring blood glucose depression levels. The animals were fasted overnight (16 hours) prior to the experiment. In the morning, the rats were anesthetized with intraperitoneally administered sodium pentobarbital. Each animal received an i.v. injection (tail vein) of the particular insulin derivative (20 μg/ml NS/kg). Blood samples were taken from the jugular vein 15 and 5 minutes before injection and 15, 30, 60, 90, 120, 180, and 240 minutes after injection. Blood glucose levels were measured with an Accucheck III blood glucose monitor (Boehringer Mannheim). Bioactivities of insulin derivatives were calculated from AUC (area under curve) values, and the AUC value for the same dose of unmodified human insulin.

[2] = test system: Inbred A/J and C57BL/10ScSn mice; details: intraperitoneal, 3 x 5 μg
Protocol: Inbred A/J and C57BL/10ScSn mice, 12 weeks old, were used throughout the experiments. Mice (10 per experimental group) were immunized intraperitoneally with 5 μg samples on day 0. Samples were injected either in soluble form (dissolved in PBS, pH 7.4) or as a precipitate (alum precipitate). After 3 weeks, the mice were given a secondary injection, and after another 3 weeks, a third injection. Eight days after the last immunization, the mice were exsanguinated and the serum was separated and stored at -80° C. The specific antibody level in the serum was determined by an ELISA indirect method as described in 44 J. Clin. Lab. Immunol. 191-241 (1994).

[3] = strain A/J, Soluble formulation
[4] = strain B10, Soluble formulation

Substance | Days to Precipitation ± S.D. [1] [days] | Biological Activity ± S.D. (male Sprague-Dawley rats) [IU/mg] | Antibody Titres ([2]; strain A/J, Alum ppt.) | Antibody Titres [2, 3] | Antibody Titres ([2]; strain B10, Alum ppt.) | Antibody Titres [2, 4]
GlyA1-LysB29-di-mCE-PEG insulin [A1-B29-(PEG600)2 Insulin] | 8.4 ± 1.3 | 19.1 ± 3.6 | – | – | – | –
GlyA1-LysB29-di-mCE-PEG insulin [A1-B29-(PEG2000)2 Insulin] | – | 10.6 ± 2.1 | – | – | – | –
GlyA1-PheB1-LysB29-tri-mCE-PEG insulin [A1-B1-B29-(PEG600)3 Insulin] | 35.9 ± 5.3 | 5.3 ± 1.1 | 0 log2 of serum dilution | 0 log2 of serum dilution | 0 log2 of serum dilution | 0 log2 of serum dilution
GlyA1-PheB1-di-mCE-PEG insulin [A1-B1-(PEG600)2 Insulin] | 26.4 ± 4.6 | 16.2 ± 3.2 | – | – | – | –
GlyA1-PheB1-di-mCE-PEG insulin [A1-B1-(PEG2000)2 Insulin] | 19.3 ± 2.3 | – | – | – | – | –
GlyA1-mCE-PEG insulin [A1-PEG600 Insulin] | – | 22.2 ± 4.2 | – | – | – | –
GlyA1-mCE-PEG insulin [A1-PEG2000 Insulin] | – | 15.7 ± 3.1 | – | – | – | –
PheB1-mCE-PEG insulin [B1-PEG600 Insulin] | 22.0 ± 4.6 | 22.8 ± 4.2 | 6.1 log2 of serum dilution | 0 log2 of serum dilution | 9.5 log2 of serum dilution | 0 log2 of serum dilution
PheB1-mCE-PEG insulin [B1-PEG2000 Insulin] | – | 15.4 ± 2.6 | 0 log2 of serum dilution | 0 log2 of serum dilution | 0 log2 of serum dilution | 0 log2 of serum dilution
